Among the data in EP2254592B1 are OD450 ratio to the negative control β2m values, retold here.

The experiment addresses purified folded MHC-complex (Example 57). In words: sandwich ELISA, W6/32 coated, HRP anti-β2m detection, OD450.

Bounds are passed on as bounds.

Consider “W6/32 mouse-anti-HLA-ABC antibody (Dako M0736)”, for which the OD450 ratio to the negative control β2m is greater than 6 fold.
